EC50 and Kd data for 2 molecules are collected here from patent US20120156198A1 (Hoffmann-La Roche, published 2012).

Where a chain is given by its changes, count along the chain named.

Test [1] deals with T1, cynomolgus IL-18Rα/IL-18Rβ on transfected cells (cynomolgus, UniProt A0A2K5V3J9 19-540; A0A7N9D6S0 20-598).
T1 construct: whole, on cells; also called CHO CyIL-18Rα + β
T1 sequence 1: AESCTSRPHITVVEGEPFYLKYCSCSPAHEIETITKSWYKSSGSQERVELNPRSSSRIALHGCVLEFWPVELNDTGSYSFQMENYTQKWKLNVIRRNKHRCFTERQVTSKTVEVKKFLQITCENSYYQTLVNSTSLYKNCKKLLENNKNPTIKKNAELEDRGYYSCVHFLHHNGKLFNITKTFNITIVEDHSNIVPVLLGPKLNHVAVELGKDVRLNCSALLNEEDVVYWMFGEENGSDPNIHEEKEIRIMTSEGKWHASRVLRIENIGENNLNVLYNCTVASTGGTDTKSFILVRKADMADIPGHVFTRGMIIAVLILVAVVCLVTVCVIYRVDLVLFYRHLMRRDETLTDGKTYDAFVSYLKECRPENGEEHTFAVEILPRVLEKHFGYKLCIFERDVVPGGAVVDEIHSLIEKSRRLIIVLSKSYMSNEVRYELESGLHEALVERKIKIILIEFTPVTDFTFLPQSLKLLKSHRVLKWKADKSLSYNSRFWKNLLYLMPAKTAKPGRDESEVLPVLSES
T1 sequence 2: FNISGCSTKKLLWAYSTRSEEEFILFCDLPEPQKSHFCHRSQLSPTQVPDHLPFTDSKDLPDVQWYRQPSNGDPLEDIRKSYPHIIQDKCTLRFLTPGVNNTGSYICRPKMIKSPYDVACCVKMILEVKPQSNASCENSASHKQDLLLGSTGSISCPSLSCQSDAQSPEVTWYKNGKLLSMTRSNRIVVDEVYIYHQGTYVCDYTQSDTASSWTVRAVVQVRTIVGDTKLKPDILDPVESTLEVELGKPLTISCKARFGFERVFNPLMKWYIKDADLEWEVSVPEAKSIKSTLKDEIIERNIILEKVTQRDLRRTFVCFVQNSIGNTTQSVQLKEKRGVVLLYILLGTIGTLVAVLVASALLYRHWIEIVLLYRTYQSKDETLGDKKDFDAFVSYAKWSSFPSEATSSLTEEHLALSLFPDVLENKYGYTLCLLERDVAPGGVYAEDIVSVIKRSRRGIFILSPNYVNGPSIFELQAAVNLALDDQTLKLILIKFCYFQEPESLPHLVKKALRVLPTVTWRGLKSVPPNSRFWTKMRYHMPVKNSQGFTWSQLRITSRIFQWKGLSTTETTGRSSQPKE
The test can be described thus: cell ELISA on CHO-K1 cells expressing cynomolgus IL-18Rα+β. The protocol: The recombinant cell lines CHO-K1 expressing cynomolgus IL-18Rα or cynomolgus IL-18Rα+β were stained with the Mab_IL-18R antibodies in a cell ELISA. Controls are CHO-K1 untransfected cells. Cells were grown in F-12 medium (GIBCO) with Glutamax-1 (GIBCO Cat. No. 31331-028)+10% FCS (PAN Cat. No. 2802-P920707). For cultivation of the recominant cell lines 250 μg/ml G418 (Geneticin, GIBCO, Cat. No. 10131-019) was added. As control antibody anti hIL-18Ralpha Antibody Mab840 (Mouse monoclonal IgG1 from R&D Systems, Cat. MAB 840) and as detection antibody goat anti-mouse IgG (H+L)-HRP conjugate (BioRad) was added. For running the assay, on day 1 2×10⁴ CHO_CynoIL-18Rα, CHO_CynoIL-18Rα+β or untransfected CHO cells in 50 μl F-12/well were seeded in a 96-well plate and incubated overnight at 37° C. On day 2, 50 μl supernatant or (2×) purified antibody diluted in medium or 50 μl Hybridoma supernatant were added and incubated for 2 h at 4° C. Supernatant was aspirated and 100 μl/well Glutaraldehyde fixing solution (25% stock solution Grade EM; final concentration=0.05% in PBS) was added and incubated for 10 minutes at room temperature. For washing 2 times 200 μl PBS/well/wash was added and removed. 50 μl of ELISA detection-antibody diluted in ELISA blocking reagent (ELISA blocking stock reagent diluted 1:10 in PBS) was added. […] The plates were measured at 450 nm-620 nm using an ELISA reader (TECAN).
(An ELISA detects its analyte on a solid surface through an enzyme-linked reagent.)

Test [2] deals with T2, recombinant human IL-18Rα Fc chimera (R&D Systems, Cat. No. 816-LR) (human, UniProt Q13478 19-329).
T2 construct: Bought protein; also called hIL-18Rα (hFc-chimera R&D-Systems 816-LR); recombinant human IL-18Rα-Fc fusion protein; not shown: human Fc of the commercial chimera
T2 sequence: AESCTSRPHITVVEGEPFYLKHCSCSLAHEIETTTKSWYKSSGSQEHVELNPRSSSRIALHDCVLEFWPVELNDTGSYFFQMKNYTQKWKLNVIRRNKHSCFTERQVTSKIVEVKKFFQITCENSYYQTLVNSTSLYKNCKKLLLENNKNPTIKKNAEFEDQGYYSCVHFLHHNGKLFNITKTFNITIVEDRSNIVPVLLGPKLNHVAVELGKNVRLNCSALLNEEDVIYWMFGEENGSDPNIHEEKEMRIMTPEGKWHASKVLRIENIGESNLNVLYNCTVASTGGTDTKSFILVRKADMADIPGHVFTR
The test can be described thus: SPR (BIACORE), 37°C, antibody captured, hIL-18Rα hFc chimera in solution; apparent KD, Langmuir 1:1. The protocol:
Coupling: amine coupling Buffer: 1×PBS (10×PBS, Ambion cat. AM9625), pH 7.4, 37° C. […] Association was measured by a hIL-18Rα-injection of 1.5 minutes at 37° C.; dissociation was measured by washing the chip surface with buffer for 10 minutes at 37° C. For calculation of apparent KD and other kinetic parameters the Langmuir 1:1 model was used.
For orientation: SPR reads the build-up and loss of mass on a sensor chip optically.

B1: Mab 1G12 (antibody, V domains shown)
VH: QVQLQQPGAELVKPGASVRMSCKTSDYTFTSNWMHWVKQRPGQGLEWIGTIDPSDSYTYYNQKFKGRATLTVDTSSSTAYMQLSSLTSEDSAVYYCTTSGDYDADRYFDVWGAGTTVTVSS
VL: DIVLTQSPASLGVSLGQRATISCRASKSVSTSGDSYMHWYQQKPGQSPKLLIYLASNLESGVPARFSGSGSGTDFTLNIHPVEEEDAATYYCQQSRELPLSFGAGTKLELK
notes: Monoclonal antibody from immunized NMRI mice; detected with anti-mouse IgG1-PE / anti-mouse IgG; also called F20.1G12; monoclonal antibody 1G12
As a reminder, the EC50 is the midpoint of the concentration-response curve. A higher EC50 goes with lower potency in that assay. B1 came in with an EC50 in test [1] of 0.015 µg/mL. Besides, the Kd in test [2] worked out at 0.027 nM.

B2: Mab 2D11 (antibody, V domains shown)
VH: B1 VH with R19K, T24A, R67K, Q82H
VL: B1 VL
notes: Monoclonal antibody from immunized NMRI mice; detected with anti-mouse IgG1-PE / anti-mouse IgG; also called F20.2D11
In the case of B2, the Kd in test [2] was found to be 0.027 nM.
